B1: library; numbered along this chain (parent)
chain: MAAAAAAAAEQQSSNGPVKKSMREKAVERRSVNKEHNSNFKAGYIPIDEDRLHKTGLRGRKGNLAICVIILLFILAVINLIITLVIWAVIRIGPNGCDSMEFHESGLLRFKQVSDMGVIHPLYKSTVGGRRNENLVITGNNQPIVFQQGTTKLSVENNKTSITSDIGMQFFDPRTQNILFSTDYETHEFHLPSGVKSLNVQKASTERITSNATSDLNIKVDGRAIVRGNEGVFIMGKTIEFHMGGNMELKAENSIILNGSVMVSTTRLPSSSSGDQLGSGDWVRYKLCMCADGTLFKVQVTSQNMGCQISDNPCGNTH

Variants of: B1
Test: SGCB cell-surface expression functional score (HA stain, bin4 vs bin1, normalised to synonymous) (log10 ratio); higher = more cell-surface SGCB (functional)
Outline: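 Sorting and sequencing yield the functional score, defined as the log ratio of a variant's highest-bin frequency to its lowest-bin frequency, with the median taken over codons and replicate transductions. The libraries, codon-saturation sets of HA-tagged, YFP-fused human beta-sarcoglycan, went into HEK293 cells stably carrying alpha-, gamma- and delta-sarcoglycan by duplicate lentiviral transduction at MOI <0.1. Cells were stained on ice with Alexa Fluor 647 anti-HA, fixed and split into four 5% intensity bins, and synonymous variants were scaled per section to mean 0, SD 0.5.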
For MAAAAAAAAEQQSSNGPVKKSMREKAVERRSVNKEHNSNFKAGYIPIDEDRLHKTGLRGRKGNLAICVIILLFILAVINLIITLVIWAVIRIGPNGCDSMEFHESGLLRFKQVSDMGVIHPLYKSTVGGRRNENLVITGNNQPIVFQQGTTKLSVENNKTSITSDIGMQFFDPRTQNILFSTDYETHEFHLPSGVKSLNVQKASTERITSNATSDLNIKVDGRAIVRGNEGVFIMGKTIEFHMGGNMELKAENSIITNGSVMVSTTRLPSSSSGDQLGSGDWVRYKLCMCADGTLFKVQVTSQNMGCQISDNPCGNTH [L257T], the “SGCB cell-surface expression functional score (log10)” value was -0.91. For MAAAAAAAAEQQSSNGPVKKSMREKAVERRSVNKEHNSNFKAGYIPIDEDRLHKTGLRGRKGNLAICVIILLFILAVINLIITLVIWAVIRIGPNGCDSMEFHESGLLRFKQVSDMGVIHPLYKSTVGGRRNENLVITGNNQPIVFQQGTTKLSVENNKTSITSDIGMQFFDPRTQNILFSTDYETHEFHLPSGVKSLNVQKASTERITSNATSDLNIKVDGRAIVRGNEGVFIMGKTIEFHMGGNMELKAENSIIINGSVMVSTTRLPSSSSGDQLGSGDWVRYKLCMCADGTLFKVQVTSQNMGCQISDNPCGNTH [L257I], the “SGCB cell-surface expression functional score (log10)” value was 0.12. With MAAAAAAAAEQQSSNGPVKKSMREKAVERRSVNKEHNSNFKAGYIPIDEDRLHKTGLRGRKGNLAICVIILLFILAVINLIITLVIWAVIRIGPNGCDSMEFHESGLLRFKQVSDMGVIHPLYKSTVGGRRNENLVITGNNQPIVFQQGTTKLSVENNKTSITSDIGMQFFDPRTQNILFSTDYETHEFHLPSGVKSLNVQKASTERITSNATSDLNIKVDGRAIVRGNEGVFIMGKTIEFHMGGNMELKAENSIISNGSVMVSTTRLPSSSSGDQLGSGDWVRYKLCMCADGTLFKVQVTSQNMGCQISDNPCGNTH [L257S] the “SGCB cell-surface expression functional score (log10)” value was -1.19. With MAAAAAAAAEQQSSNGPVKKSMREKAVERRSVNKEHNSNFKAGYIPIDEDRLHKTGLRGRKGNLAICVIILLFILAVINLIITLVIWAVIRIGPNGCDSMEFHESGLLRFKQVSDMGVIHPLYKSTVGGRRNENLVITGNNQPIVFQQGTTKLSVENNKTSITSDIGMQFFDPRTQNILFSTDYETHEFHLPSGVKSLNVQKASTERITSNATSDLNIKVDGRAIVRGNEGVFIMGKTIEFHMGGNMELKAENSIIANGSVMVSTTRLPSSSSGDQLGSGDWVRYKLCMCADGTLFKVQVTSQNMGCQISDNPCGNTH [L257A] the “SGCB cell-surface expression functional score (log10)” value was -0.23. With MAAAAAAAAEQQSSNGPVKKSMREKAVERRSVNKEHNSNFKAGYIPIDEDRLHKTGLRGRKGNLAICVIILLFILAVINLIITLVIWAVIRIGPNGCDSMEFHESGLLRFKQVSDMGVIHPLYKSTVGGRRNENLVITGNNQPIVFQQGTTKLSVENNKTSITSDIGMQFFDPRTQNILFSTDYETHEFHLPSGVKSLNVQKASTERITSNATSDLNIKVDGRAIVRGNEGVFIMGKTIEFHMGGNMELKAENSIIRNGSVMVSTTRLPSSSSGDQLGSGDWVRYKLCMCADGTLFKVQVTSQNMGCQISDNPCGNTH [L257R] the “SGCB cell-surface expression functional score (log10)” value was -1.52. In the case of MAAAAAAAAEQQSSNGPVKKSMREKAVERRSVNKEHNSNFKAGYIPIDEDRLHKTGLRGRKGNLAICVIILLFILAVINLIITLVIWAVIRIGPNGCDSMEFHESGLLRFKQVSDMGVIHPLYKSTVGGRRNENLVITGNNQPIVFQQGTTKLSVENNKTSITSDIGMQFFDPRTQNILFSTDYETHEFHLPSGVKSLNVQKASTERITSNATSDLNIKVDGRAIVRGNEGVFIMGKTIEFHMGGNMELKAENSIINNGSVMVSTTRLPSSSSGDQLGSGDWVRYKLCMCADGTLFKVQVTSQNMGCQISDNPCGNTH [L257N], the “SGCB cell-surface expression functional score (log10)” value is reported as -0.61. With MAAAAAAAAEQQSSNGPVKKSMREKAVERRSVNKEHNSNFKAGYIPIDEDRLHKTGLRGRKGNLAICVIILLFILAVINLIITLVIWAVIRIGPNGCDSMEFHESGLLRFKQVSDMGVIHPLYKSTVGGRRNENLVITGNNQPIVFQQGTTKLSVENNKTSITSDIGMQFFDPRTQNILFSTDYETHEFHLPSGVKSLNVQKASTERITSNATSDLNIKVDGRAIVRGNEGVFIMGKTIEFHMGGNMELKAENSIIGNGSVMVSTTRLPSSSSGDQLGSGDWVRYKLCMCADGTLFKVQVTSQNMGCQISDNPCGNTH [L257G] the “SGCB cell-surface expression functional score (log10)” value was -0.1. In the case of MAAAAAAAAEQQSSNGPVKKSMREKAVERRSVNKEHNSNFKAGYIPIDEDRLHKTGLRGRKGNLAICVIILLFILAVINLIITLVIWAVIRIGPNGCDSMEFHESGLLRFKQVSDMGVIHPLYKSTVGGRRNENLVITGNNQPIVFQQGTTKLSVENNKTSITSDIGMQFFDPRTQNILFSTDYETHEFHLPSGVKSLNVQKASTERITSNATSDLNIKVDGRAIVRGNEGVFIMGKTIEFHMGGNMELKAENSIIENGSVMVSTTRLPSSSSGDQLGSGDWVRYKLCMCADGTLFKVQVTSQNMGCQISDNPCGNTH [L257E], the “SGCB cell-surface expression functional score (log10)” value is reported as -0.43. For MAAAAAAAAEQQSSNGPVKKSMREKAVERRSVNKEHNSNFKAGYIPIDEDRLHKTGLRGRKGNLAICVIILLFILAVINLIITLVIWAVIRIGPNGCDSMEFHESGLLRFKQVSDMGVIHPLYKSTVGGRRNENLVITGNNQPIVFQQGTTKLSVENNKTSITSDIGMQFFDPRTQNILFSTDYETHEFHLPSGVKSLNVQKASTERITSNATSDLNIKVDGRAIVRGNEGVFIMGKTIEFHMGGNMELKAENSIYLNGSVMVSTTRLPSSSSGDQLGSGDWVRYKLCMCADGTLFKVQVTSQNMGCQISDNPCGNTH [I256Y], the “SGCB cell-surface expression functional score (log10)” value was 0.42. In the case of MAAAAAAAAEQQSSNGPVKKSMREKAVERRSVNKEHNSNFKAGYIPIDEDRLHKTGLRGRKGNLAICVIILLFILAVINLIITLVIWAVIRIGPNGCDSMEFHESGLLRFKQVSDMGVIHPLYKSTVGGRRNENLVITGNNQPIVFQQGTTKLSVENNKTSITSDIGMQFFDPRTQNILFSTDYETHEFHLPSGVKSLNVQKASTERITSNATSDLNIKVDGRAIVRGNEGVFIMGKTIEFHMGGNMELKAENSIWLNGSVMVSTTRLPSSSSGDQLGSGDWVRYKLCMCADGTLFKVQVTSQNMGCQISDNPCGNTH [I256W], the “SGCB cell-surface expression functional score (log10)” value is reported as -0.179.

From the supplement of paper PMC10266784
